# Laboratory results as given in paper PMC11574045, “A cofactor-induced repressive type of transcription factor condensation can be induced by synthetic peptides to suppress tumorigenesis” (The EMBO Journal, 2024).
# Test system: HEK293FT cells transfected with TF library
# Assay: Screening of TF condensates based on fluorescent puncta
# Assay type: cell-based
# Settings: Figure 1B numerical data; TF library screen, one value per transcriptional factor
# How it was run: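 Cells were seeded onto plasmid/PEI-loaded wells (plasmid 1.6 μg/ml final) and grown 60 h. Medium with or without glucose followed for 12 h. Fixed, permeabilized cells were stained against Flag or GAL4 tags, and condensate puncta were quantified from 50 random fields per well.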
row,Molecule,Z score of condensed fraction
1,"FOXA3 (protein, UniProt P55318 1-350, looked up) Hepatocyte nuclear factor …: MLGSVKMEAHDLAEWSYYPEAGEVYSPVTPVPTMAPLNSYMTLNPLSSPYPPGGLPASPLPSGPLAPPAPAAPLGPTFPGLGVSGGSSSSGYGAPGPGLVHGKEMPKGYRRPLAHAKPPYSYISLITMAIQQAPGKMLTLSEIYQWIMDLFPYYRENQQRWQNSIRHSLSFNDCFVKVARSPDKPGKGSYWALHPSSGNMFENGCYLRRQKRFKLEEKVKKGGSGAATTTRNGTGSAASTTTPAATVTSPPQPPPPAPEPEAQGGEDVGALDCGSPASSTPYFTGLELPGELKLDAPYNFNHPFSINNLMSEQTPAPPKLDVGFGGYGAEGGEPGVYYQGLYSRSLLNAS",0.4813
2,"FOXA1 (protein, UniProt P55317 1-472, looked up) Hepatocyte nuclear factor …: MLGTVKMEGHETSDWNSYYADTQEAYSSVPVSNMNSGLGSMNSMNTYMTMNTMTTSGNMTPASFNMSYANPGLGAGLSPGAVAGMPGGSAGAMNSMTAAGVTAMGTALSPSGMGAMGAQQAASMNGLGPYAAAMNPCMSPMAYAPSNLGRSRAGGGGDAKTFKRSYPHAKPPYSYISLITMAIQQAPSKMLTLSEIYQWIMDLFPYYRQNQQRWQNSIRHSLSFNDCFVKVARSPDKPGKGSYWTLHPDSGNMFENGCYLRRQKRFKCEKQPGAGGGGGSGSGGSGAKGGPESRKDPSGASNPSADSPLHRGVHGKTGQLEGAPAPGPAASPQTLDHSGATATGGASELKTPASSTAPPISSGPGALASVPASHPAHGLAPHESQLHLKGDPHYSFNHPFSINNLMSSSEQQHKLDFKAYEQALQYSPYGSTLPASLPLGSASVTTRSPIEPSALEPAYYQGVYSRPVLNTS",-0.3489
3,"FOXE3 (protein, UniProt Q13461 1-319, looked up) Forkhead box protein E3: MAGRSDMDPPAAFSGFPALPAVAPSGPPPSPLAGAEPGREPEEAAAGRGEAAPTPAPGPGRRRRRPLQRGKPPYSYIALIAMALAHAPGRRLTLAAIYRFITERFAFYRDSPRKWQNSIRHNLTLNDCFVKVPREPGNPGKGNYWTLDPAAADMFDNGSFLRRRKRFKRAELPAHAAAAPGPPLPFPYAPYAPAPGPALLVPPPSAGPGPSPPARLFSVDSLVNLQPELAGLGAPEPPCCAAPDAAAAAFPPCAAAASPPLYSQVPDRLVLPATRPGPGPLPAEPLLALAGPAAALGPLSPGEAYLRQPGFASGLERYL",-0.8488
4,"FOXB2 (protein, UniProt Q5VYV0 1-432, looked up) Forkhead box protein B2: MPRPGKSSYSDQKPPYSYISLTAMAIQHSAEKMLPLSDIYKFIMERFPYYREHTQRWQNSLRHNLSFNDCFIKIPRRPDQPGKGSFWALHPDCGDMFENGSFLRRRKRFKVLRADHTHLHAGSTKSAPGAGPGGHLHPHHHHHPHHHHHHHAAAHHHHHHHPPQPPPPPPPPPPHMVHYFHQQPPTAPQPPPHLPSQPPQQPPQQSQPQQPSHPGKMQEAAAVAAAAAAAAAAAVGSVGRLSQFPPYGLGSAAAAAAAAAASTSGFKHPFAIENIIGRDYKGVLQAGGLPLASVMHHLGYPVPGQLGNVVSSVWPHVGVMDSVAAAAAAAAAAGVPVGPEYGAFGVPVKSLCHSASQSLPAMPVPIKPTPALPPVSALQPGLTVPAASQQPPAPSTVCSAAAASPVASLLEPTAPTSAESKGGSLHSVLVHS",-0.2645
5,"FOSL2 (protein, UniProt P15408 1-326, looked up) Fos-related antigen 2: MYQDYPGNFDTSSRGSSGSPAHAESYSSGGGGQQKFRVDMPGSGSAFIPTINAITTSQDLQWMVQPTVITSMSNPYPRSHPYSPLPGLASVPGHMALPRPGVIKTIGTTVGRRRRDEQLSPEEEEKRRIRRERNKLAAAKCRNRRRELTEKLQAETEELEEEKSGLQKEIAELQKEKEKLEFMLVAHGPVCKISPEERRSPPAPGLQPMRSGGGSVGAVVVKQEPLEEDSPSSSSAGLDKAQRSVIKPISIAGGFYGEEPLHTPIVVTSTPAVTPGTSNLVFTYPSVLEQESPASPSESCSKAHRRSSSSGDQSSDSLNSPTLLAL",-0.8108
6,"FOXF2 (protein, UniProt O54743 1-446, looked up) Forkhead box protein F2: MSTEGGPPPPPPRPPPAPLRRACSPAPGALQAALMSPPPAATLESTSSSSSSSSASCASSSSNSVSASAGACKSAASSGGAGAGSGGTKKATSGLRRPEKPPYSYIALIVMAIQSSPSKRLTLSEIYQFLQARFPFFRGAYQGWKNSVRHNLSLNECFIKLPKGLGRPGKGHYWTIDPASEFMFEEGSFRRRPRGFRRKCQALKPMYHRVVSGLGFGASLLPQGFDFQAPPSAPLGCHGQGGYGGLDMMPAGYDTGAGAPGHAHPHHLHHHHVPHMSPNPGSTYMASCPVPAGPAGVGAAAGGGGGGGDYGPDSSSSPVPSSPAMASAIECHSPYTSPAAHWSSPGASPYLKQPPALTPSSNPAASAGLHPSMSSYSLEQSYLHQNAREDLSVGLPRYQHHSTPVCDRKDFVLNFNGISSFHPSASGSYYHHHHQSVCQDIKPCVM",0.2019
7,"FOXD4L1 (protein, UniProt Q9NU39 1-408, looked up) Forkhead box protein D4-like 1: MNLPRAERPRSTPQRSLRDSDGEDGKIDVLGEEEDEDEVEDEEEEASQKFLEQSLQPGLQVARWGGVALPREHIEGGGPSDPSEFGTEFRAPPRSAAASEDARQPAKPPYSYIALITMAILQSPHKRLTLSGICAFISGRFPYYRRKFPAWQNSIRHNLSLNDCFVKIPREPGHPGKGTYWSLDPASQDMFDNGSFLRRRKRFKRHQLTPGAHLPHPFPLPAAHAALHNPRPGPLLGAPALPQPVPGAYPNTAPGRRPYALLHPHPPRYLLLSAPAYAGAPKKAEGADLATPGTLPVLQPSLGPQPWEEGKGLASPPGGGCISFSIESIMQGVRGAGTGAAQSLSPTAWSYCPLLQRPSSLSDNFAATAAASGGGLRQRLRSHQGRGAGRAPVGRVGAAAVSGGGRGL",-0.9826
8,"FOXD4L4 (protein, UniProt Q8WXT5 1-416, looked up) Forkhead box protein D4-like 4: MNLPRAERPRSTPQRSLRDSDGEDGKIDVLGEEEDEDEVEDEEEEARQQFLEQSLQPGLQVARWGGVALPREHIEGGGGPSDPSEFGTKFRAPPRSAAASEDARQPAKPPYSYIALITMAILQNPHKRLTLSGICAFISGRFPYYRRKFPAWQNSIRHNLSLNDCFVKIPREPGHPGKGNYWSLDPASQDMFDNGSFLRRRKRFKRHQLTPGAHLPHPFPLPAAHAALHNPHPGPLLGAPAPPQPVPGAYPNTAPGRRPYALLHPHPLRYLLLSARVYAGAPKKAEGADLATPAPFPCCSPHLVLSLGRRARVWRRHREADASLSALRVLCKGSGERVQGLRRVCPRPRGATATCSSDHQACCIPKPLPLCCKCPPPLLLGQFCSNSSSIRRTAPTAALPPRARCWAGTCRPRRRC",0.1205
9,"FOXD4L5 (protein, UniProt Q5VV16 1-416, looked up) Forkhead box protein D4-like 5: MNLPRAERPRSTPQRSLRDSDGEDGKIDVLGEEEDEDEVEDEEEEARQQFLEQSLQPGLQVARWGGVALPREHIEGGGGPSDPSEFGTKFRAPPRSAAASEDARQPAKPPYSYIALITMAILQNPHKRLTLSGICAFISGRFPYYRRKFPAWQNSIRHNLSLNDCFVKIPREPGHPGKGNYWSLDPASQDMFDNGSFLRRRKRFKRHQLTPGAHLPHPFPLPAAHAALHNPHPGPLLGAPAPPQPVPGAYPNTAPGRCPYALLHPHPLRYLLLSAPVYAGAPKKAEGADLATPAPFPCCSPHLVLSLGRRARVWRRHREADASLSALRVLCKGSGERVQGLRRVCPRPRGATATCSSDHQACCIPKPLPLCCKCPPPLLLGQFCSNSSSIRRTAPTAALPPRARCWAGTCRPRRRC",-0.7466
